Data: the supplement of paper PMC10126150
± gives the standard deviation of the averaged measurements.

Tested on: ATP
Test: switch fluorescence ratio, 500 uM ATP over buffer (Cy3 cluster intensity, sum of 5 cycles each) (fold (ratio)); higher = stronger signal-on switching upon ATP binding; sequences stand for … in TCGTCGGCAGCGTCAGATGTGTATAAGAGACAGTTTTTTTTTTTTTTTTTTTTTTTTT…TC
Details: aptamer strand: ATP DNA aptamer (quencher-CACCTGGGGGAGTATTGCGGAGGAAGG + anchor), 100 nM annealed; ATP concentration: 500 uM
How it was run: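 Cy3-labelled switching-strand clusters on a modified Illumina MiSeq flow-cell were annealed to 100 nM quencher-labelled ATP aptamer, imaged in selection buffer, then imaged after 15 min with 500 uM ATP at 22 °C. Five buffer/ATP cycles ran, with NaOH stripping and re-annealing between them. The fluorescence ratio is summed target-cycle over summed buffer-cycle Cy3 intensity per cluster, averaged per switch-domain sequence. Clusters outside 100-1000 RFU were excluded.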
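Further: ATP exposure 15 min at 22 °C before imaging.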

Sequence	switch fluorescence ratio
GGTTGATGGG	0.999 ± 0.038
GGTTGCATCA	0.994 ± 0.032
GGTTGCATCG	0.986 ± 0.012
GGTTGCGGGT	0.9874 ± 0.0056
GGTTGCGTCG	1.01 ± 0.014
GGTTGGACCA	0.9602 ± 0.0032
GGTTGGATTA	0.9787 ± 0.00083
GGTTGGCCGC	1.02 ± 0.032
GGTTGGGGGG	1 ± 0.036
GGTTGGGTTA	1.033 ± 0.0083
GGTTGGTGCA	1.02 ± 0.013
GGTTGTAGGC	1.02 ± 0.017
GGTTGTGAAG	0.994 ± 0.043
GGTTGTGCGA	0.98322 ± 0.00037
GGTTGTTAGG	0.9796 ± 0.0055
GGTTTAAAAT	0.9581 ± 0.0094
GGTTTAAGTG	0.979 ± 0.052
GGTTTAATCG	1.01 ± 0.046
GGTTTAATGG	1.01 ± 0.018
GGTTTAATTA	0.972 ± 0.03
GGTTTAGCG	1.014 ± 0.0025
GGTTTAGCTC	0.999 ± 0.038
GGTTTAGGAA	1 ± 0.028
GGTTTAGGAG	1.01 ± 0.062
GGTTTAGGCT	1.08 ± 0.12

Sequence	switch fluorescence ratio
GGTTTATGAC	1.13 ± 0.27
GGTTTCATGG	0.998 ± 0.012
GGTTTCGTTT	1.002 ± 0.0063
GGTTTGAAAA	1.01 ± 0.032
GGTTTGCGCT	1.004 ± 0.0076
GGTTTGGGAG	1 ± 0.036
GGTTTGGGGG	0.997 ± 0.023
GGTTTGGTAA	1.014 ± 0.0099
GGTTTGTGTT	0.974 ± 0.017
GGTTTTAAGT	1.01 ± 0.04
GGTTTTGATG	0.98 ± 0.039
GGTTTTGGCG	1 ± 0.061
GGTTTTGGGG	1.01 ± 0.026
GGTTTTGTAG	0.999 ± 0.012
GGTTTTGTTG	1.01 ± 0.0013
GGTTTTTAGA	1 ± 0.013
GGTTTTTTAC	1 ± 0.062
GGTTTTTTTC	1.02 ± 0.048
GTAAAAAAAG	1.09 ± 0.086
GTAAAAATTT	1.06 ± 0.11
GTAAAAGGGG	0.996 ± 0.042
GTAAAGCCTG	0.968 ± 0.032
GTAACCAATT	1.01 ± 0.021
GTAAGAGGGG	1.02 ± 0.03
GTAAGATGAA	1.01 ± 0.018

Sequence	switch fluorescence ratio
GTAAGATTGA	0.986 ± 0.015
GTAAGGAGTA	0.96199 ± 0.0002
GTAAGGGATA	0.988 ± 0.031
GTAAGGGGAT	0.988 ± 0.016
GTAAGGGGCA	1.07 ± 0.047
GTAAGGGGTC	1 ± 0.028
GTAAGTAGGA	1 ± 0.037
GTAAGTTGGT	1 ± 0.021
GTAAGTTTTT	0.984 ± 0.02
GTAATAAAAT	0.971 ± 0.034
GTAATAAGCG	1.007 ± 0.00016
GTAATACGTG	1.14 ± 0.041
GTAATACTTG	1.079 ± 0.01
GTAATAGGTT	0.956 ± 0.057
GTAATAGTTG	1.01 ± 0.022
GTAATATTAT	0.974 ± 0.032
GTAATCATCG	0.9847 ± 0.0073
GTAATCTCAG	0.997 ± 0.022
GTAATGCTTG	1.012 ± 0.01
GTAATGGAAT	0.9912 ± 0.0078
GTAATGTGGT	0.967 ± 0.024
GTAATTAAGG	0.996 ± 0.029
GTAATTCAGA	0.99 ± 0.037
GTAATTGGGC	0.964 ± 0.061
GTAATTGTAA	0.984 ± 0.012

Sequence	switch fluorescence ratio
GTAATTTGCA	0.9986 ± 0.0055
GTACCATTTT	0.9968 ± 0.0067
GTACCGGGCA	1.02 ± 0.026
GTACGAGGGA	0.997 ± 0.026
GTACGAGTGC	0.976 ± 0.019
GTACGTAGGC	1.03 ± 0.06
GTACTGCCTG	1 ± 0.024
GTACTTCTGT	0.96 ± 0.014
GTAGAAAAAG	1.99 ± 1.4
GTAGAAGGGA	1.01 ± 0.025
GTAGAAGGGG	1 ± 0.021
GTAGACGGGT	1.03 ± 0.031
GTAGAGAGTG	1 ± 0.02
GTAGAGCGGG	0.9889 ± 0.0042
GTAGGACTGC	1.01 ± 0.021
GTAGGAGCCG	0.9987 ± 0.0097
GTAGGAGGGA	1.05 ± 0.1
GTAGGGCGCG	1.021 ± 0.0035
GTAGGGGCTG	1 ± 0.074
GTAGGGGTCA	0.976 ± 0.054
GTAGTAATTG	1.075 ± 0.0065
GTAGTCTTAG	0.9943 ± 0.0097
GTAGTGACGT	0.975 ± 0.044
GTAGTTCATG	0.96 ± 0.018
GTATAAGCCT	1.05 ± 0.041

Sequence	switch fluorescence ratio
GTATAGGGTT	0.9931 ± 0.007
GTATATCCGG	0.975 ± 0.013
GTATCAGGGC	1.04 ± 0.033
GTATCTTACT	1.007 ± 0.0018
GTATGAAATG	0.999 ± 0.022
GTATGAGGCG	0.981 ± 0.04
GTATGAGGGA	0.993 ± 0.018
GTATGATGTG	0.9915 ± 0.008
GTATGCGAAG	1.03 ± 0.053
GTATGCGCAA	2.74 ± 0.06
GTATGCGTGT	1.04 ± 0.034
GTATGCTAAC	1 ± 0.043
GTATGCTTGG	0.9959 ± 0.0042
GTATGGGGGA	1.01 ± 0.031
GTATGTTGCG	0.96532 ± 0.00026
GTATTATTTA	1 ± 0.022
GTATTGAAGT	0.98469 ± 0.00015
GTATTGCTTT	0.963 ± 0.012
GTATTGTCAG	0.9663 ± 0.00064
GTATTGTTTT	1.14 ± 0.16
GTATTTCGGC	0.994 ± 0.027
GTATTTGGGA	0.991 ± 0.054
GTATTTTATT	1.006 ± 0.0064
GTATTTTGGG	0.996 ± 0.014
GTATTTTTGG	0.972 ± 0.03

Sequence	switch fluorescence ratio
GTCAAAGATT	0.98 ± 0.014
GTCAATAAGG	0.99 ± 0.016
GTCAATTGGG	0.992 ± 0.044
GTCACTAAAG	1.02 ± 0.043
GTCAGAATGT	1.02 ± 0.017
GTCAGAGGCA	0.991 ± 0.011
GTCAGGCCGG	1.09 ± 0.15
GTCAGGTCTT	0.975 ± 0.021
GTCAGTCTGA	0.9805 ± 0.003
GTCATAGTGT	0.955 ± 0.037
GTCATCGAGT	1.008 ± 0.0039
GTCATCGGCC	0.996 ± 0.035
GTCATTCCGC	1.65 ± 0.065
GTCATTGCGG	0.994 ± 0.015
GTCCAAGGGT	1.01 ± 0.035
GTCCATTGGG	1 ± 0.021
GTCCATTTTG	1.01 ± 0.064
GTCCCGGTTT	1.02 ± 0.095
GTCCGAAAGA	1.18 ± 0.095
GTCCGGATGG	1.02 ± 0.011
GTCCGGGGTT	0.994 ± 0.021
GTCCGGGTGG	1.05 ± 0.1
GTCGAAGGAA	1 ± 0.011
GTCGACAGGT	0.987 ± 0.031
GTCGCCGACC	0.996 ± 0.038

Sequence	switch fluorescence ratio
GTCGCGGTTG	1.03 ± 0.0015
GTCGGAAGGG	1.01 ± 0.032
GTCGGGGGAT	1.02 ± 0.014
GTCGGGGTAC	0.997 ± 0.034
GTCGGTAAGG	0.982 ± 0.021
GTCGGTACTT	0.996 ± 0.012
GTCGGTATTC	0.9947 ± 0.0081
GTCGTAAAAA	1.61 ± 0.0016
GTCGTACGTT	1.06 ± 0.025
GTCGTTAGGA	1.01 ± 0.0038
GTCGTTCGCA	1.15 ± 0.11
GTCGTTGGTT	0.985 ± 0.033
GTCGTTTGGG	0.991 ± 0.027
GTCTTATGGC	0.997 ± 0.011
GTCTTATTTA	0.976 ± 0.014
GTCTTGACGA	0.996 ± 0.019
GTGAAAAGGG	0.963 ± 0.038
GTGAAAGGGA	1.03 ± 0.017
GTGAAAGTGG	0.979 ± 0.028
GTGAAGACGT	1.002 ± 0.0077
GTGAAGAGGG	0.9977 ± 0.0056
GTGAAGTATG	1.016 ± 0.00074
GTGAATAGAG	1 ± 0.027
GTGACAGGTG	1.47 ± 0.053
GTGACCTGGG	1.03 ± 0.026

Sequence	switch fluorescence ratio
GTGACGGGGT	1.01 ± 0.022
GTGACTTTCT	0.99 ± 0.017
GTGAGATGTT	1 ± 0.016
GTGAGCCGGT	0.983 ± 0.013
GTGAGGGAGT	1.008 ± 0.006
GTGAGGTGTG	1.001 ± 0.009
GTGAGTAGGG	0.989 ± 0.018
GTGAGTGGCA	0.986 ± 0.029
GTGATAAGAG	0.999 ± 0.013
GTGATAAGCG	1.03 ± 0.04
GTGATACCCG	1.02 ± 0.058
GTGATACTGG	1.04 ± 0.014
GTGATAGTTA	0.967 ± 0.043
GTGATCTGAT	1.01 ± 0.029
GTGATCTTAT	0.9965 ± 0.0031
GTGATCTTTT	1 ± 0.049
GTGATGGCAG	0.9846 ± 0.0053
GTGATGGGGG	1.01 ± 0.051
GTGATGTTAG	1.01 ± 0.011
GTGATTGCTA	0.9878 ± 0.0061
GTGATTGCTG	0.9883 ± 0.0052
GTGATTTGGT	0.995 ± 0.019
GTGATTTTGG	0.9882 ± 0.0042
GTGATTTTGT	1.01 ± 0.032
GTGCAATGTA	1.1 ± 0.015
